In the DeepSol protein solubility set:

Experiment: soluble on expression in E. coli; label from the status in PepcDB or PDB records

Row | Sequence | soluble on expression in E. coli
1 | MSLGSIITLYSPVGGIGKSTIAIEMAKKLSDSNKKVLYLNLEDLQSTLVFFECSTSKNMSDFLYFIKERDENFKEVLKDIVLKDEESGINYFAPVDSVLDIEDLKVDDVKFMLQKLIEVNMYNYIIIDLSSTFNINYKTIFEMSSKIIVPIGQDKLSSVKLQNFLKQLDNLENFSFIQNKYKDNLETIIPHVLLREKKPIIQKIYYDEALESVSSLIYLKNRASTFLRCIDELIMKLLEGHHHHHH | soluble
2 | MGSDKIHHHHHHMRNIVFTGKGGVGKTSIAASTAVRAAALGYKTLVISTDPAHSLGDSFDIELGPSPVKVAENLWGQEVSVYGDLSLNWEVVREHFAHLMEVQGIEGIYVEEMGVLPGMEELFSLSYIKRYNESSEYDLLVVDCAPTGETLRLLSIPETFGWMLKLMRNMEKYVVKPVIRPLSKRISRLHDFVPDTDVYDQVDHLFSSVEGIIELLSDNSKTTVRLVMNPEKMVVKESMRALTYLNLYNITIDQIVINRVYMDDVDGQYFKGWKEIQKKYIAEIESSFGPIPITRVPLFRTEVLGLEMLKKVGETVYGDRNPLDIFYHEEHTEIVKPGEGHYVMKLRLPFVFDNRMEANIVQVGDLLTIRIGNHQKSVVLPTFLAGMKVTHAGYEEKWLAIEFRKKETAK | not soluble
3 | MGHHHHHHSHMPESYWEKVSGKNIPSSLDLYPIIHNYLQEDDEILDIGCGSGKISLELASLGYSVTGIDINSEAIRLAETAARSPGLNQKTGGKAEFKVENASSLSFHDSSFDFAVMQAFLTSVPDPKERSRIIKEVFRVLKPGAYLYLVEFGQNWHLKLYRKRYLHDFPITKEEGSFLARDPETGETEFIAHHFTEKELVFLLTDCRFEIDYFRVKELETRTGNKILGFVIIAQKL | not soluble
4 | MARTLFLEEGPMFFEKIAPYTYRIPRQGKMRVDAVFFASKEILKDLEAENYASLQQLMNVATLPGIVEPALAMPDIHWGYGFPIGGVAAFDPEEGGVVSPGGVGFDINCGVRLLASHLTLEDLLPRQKELADALYRLVPSGVGSERRDVRFSKRELKEILKEGAGWLVKRGYGYPEDVRFIESQGRLPWANPDKVSERAFERGAPQIGTLGSGNHFLEVQYVDEVYDEEAALAFGLFKGQVTVLIHTGSRGLGHQVCQDYVERFLKVAPRYGIELVDKQLAAAPIKSPEGQDYLQAMAAAANFAFANRQLIAHFVREAFEKVGFTPRDHGLRVLYDLAHNNAKFEEHRGRRVLVHRKGATRAFGPGHPEVPEEYRRVGQPVLVPGDMGRYSYVLAGTEKAMEVSFGSSCHGAGRKMSRHQAKKVARERNLVKELAERGILVRAATRATVDEEMPEAYKDVSLVVEAVEGAGIGKKVARLRPLIVVKG | soluble
5 | MGGSHHHHHHGMASALSQATKRKHVVKEVLGEHIVPSNQQQIVRVLRTPGNNLHEVETAQGQRFLVSMPSKYRKNIWIKRGDFLIVDPIEEGEKVKAEISFVLCKDHVRSLQKEGFWPEAFSEVAEKHNNRNRQTQPELPAEPQLSGEESSSEDDSDLFVNTNRRQYHESEEESEEEEAA | not soluble
6 | MSELRALIREILVEELAALRAAPAATPACEMVDVHSDEALMAFARDLLGRANDPEFVRCVQSGQHRFTLAPTVAQPPGQRPAPAASFTLVASAPAEAPRFEKALVTERDVAAIPRDQSRIRLARNTRLTPLASDELRRRGIRIERTQK | not soluble
7 | MAHHHHHHMNVLTSHTHLHMRRSCCMATARGCLGNIRTSDVSTRRCKGDYGFNIFHNSNPQHGASYARHERRMREDEVEDFLKSVKGWVPVDECFPCVDADADAEGADARKEEKEEMGPAPLTIFTGEGALKRDFDFANFRDAYLFMGRLWAFCYGSDKYPNVTWEGTRITVYIYSPSFRGLSKREARLAAFLNDQYNMFKKSKRQQKVIIDGVVKRSVIEDMMGECVAEALKRREEERQKPLAETVEGIATSWEAVLSKDGNNNNNDGTPSSCTSP | not soluble
8 | SLLPSFFPCCRCKWSATGCGTCSTQDCEGICKMTSGEQAKTPLQAPILLTNVKPVGFGKGASQSSTDILIGGDGKIAAVGSALQAPADTQRIDAKGAFISPGWVDLHVHIWHGGTDISIRPSECGAERGVTTLVDAGSAGEANFHGFREYIIEPSRERIKAFLNLGSIGLVACNRVPELRDIKDIDLDRILECYAENSEHIVGLKVRASHVITGSWGVTPVKLGKKIAKILKVPMMVHVGEPPALYDEVLEILGPGDVVTHCFNGKSGSSIMEDEDLFNLAERCAGEGIRLDIGHGGASFSFKVAEAAIARGLLPFSISTDLHGHSMNFPVWDLATTMSKLLSVDMPFENVVEAVTRNPASVIRLDMENRLDVGQRADFTVFDLVDADLEATDSNGDVSRLKRLFEPRYAVIGAEAIAASRYIPRARKLVRHSHGYSWR | soluble
9 | MPESSRDKGNAAISGNRSVLSIASPTKLNILSSDWSRNQGKVSKNSLKRSSSLNIRNSKRPSLQASANSIYSRPKITIGAPPLIRRDSSFFKDEFDAKKDKATFSAYSSRSYPTIGSESVVSQTSLSQPTTSREVDEQFTVAADRYIPILQGASQNKVDPETLHEALPPPNASPISHLRAQTKIVFKQNVAEACGLDMNKRILQYMPEPPKCSSLRQKSYIMKKRTHYSYQQEQKIPDLIKLRKINTNPERILDAPGFQDDFYLNLLSWSKKNVLAIALDTALYLWNATTGDVSLLTDFENTTICSVTWSDDDCHISIGKEDGNTEIWDVETMSLIRTMRSGLGVRIGSLSWLDTLIATGSRSGEIQINDVRIKQHIVSTWAEHTGEVCGLSYKSDGLQLASGGNDNTVMIWDTRTSLPQFSKKTHTAAVKALSWCPYSPNILASGGGQTDKHIHFWNSITGARVGSINTGSQVSSLHWGQSHTSTNGGMMNKEIVATGGNPENAISVYNYETKFKVAEVVHAHEARICCSQLSPDGTTLATVGGDENLKFYKIFDPRCTGRSREDGLMDGMLGLIGKEGCRTNDKENRSKNSSEIHTRRPSSTSQYLIR | not soluble
10 | MNSRQMYEKIKERLVAHPHWTFRFDAKQDAMRVEDRRTKKGVTISLPGVIAKWHEQKDEAVREVVYYVEQTLKTMEEDAALSGNERNIYPVIRSASFPTETKEGVPLLFDDHTAETRIYYALDLGKTYRLIDERMLEKDKWSRERVKEIARFNVRSLPTPVKEARVADNVFYFVNPNDGYDASRILNESFLADMRARVEGTMAVAVPHQDVLVIADVRNDIGYDVLAQMTMSFFAGGRVPITALSFLYENGKLEPIFILGKKRRT | not soluble
11 | MGHHHHHHSHMLPVELVRHDVKKTDETSQVELMLQVDPDLFWFNGHFTGQPLLPGVAQLDWVMHYATTVLAQGWTFLSIENIKFQQPILPGKTLRLVLIWHAGKQSLTFSYSILEGDTERTASSGKIKLTPIMEDNPCQ | soluble
12 | MIKSYKIRGTSLTVNRSDSYPDACNWTADSFGMLFYDPEYDLSTESLSITLDAGNDWVPEGGLVYESLPVKVTYENPEMMDYGTDWFNQGYSALGWNGEEYAYLGTDRGIVNILLEEDEKILYPNEEYDLKEGYTLKVTDLASDKACLTLSRNKLPVYSSIISPGKSADLGTHTFLYKKELNGVEVPLFSVYVDSVIQGDELSAVNLKHLLHFSDSPLELNYGKEYGELTIVETYPKLRLENKHVVWSGSDINVTEDIWIGRFEKKTAGNLFVLEHHHHHH | soluble
13 | IKEGQLAEKTIRANKNIENTYETEQRKKLAAEAVTPEYIYQEDTASVQHNRIDKLFKLIDSANEKVDKEYSNKQAKAKKEETIPAPTVEERVASLKSLFESLPQDEVTFYQSFPNVFYQTIFTLTSEQLDKVRSESLMLVDDAMQNHVRESDLDKIRQEANGKIQYLDITSTMQQVIRYIVNQGIVVNDIANEKRTEELRQKAMNAVQPAMIYQGEIIVREGTQIDAKAVEKLELLGMTSQNTS | not soluble
14 | MGSDKIHHHHHHMRKLPPLRALQVFEAAARHLHFSRAAEELCLTQSAVSHQVRGLEQHLGQTLFARRGRELALTPKGEQLFLAVQSALDGLDSLCRQLNEAESRELRLAVYSSFAVKWLIPRLGDFRRQHPGIKIHLEMVSGDPPLSDQVADMFICGEQHQRGFWQTLLRPERLIPVCSPALANALGEALVMPLRLDSLPLLSVDEADIGPDWARWAKSQAQTLTQAQLQSYSHVLLAIEAAIAGQGIALASDFIVEGDIAAGKLMALPWPALETGFGFHFCCRERRLKEPAMAAFAEWIQQQAAMAG | not soluble
15 | ENRDCYSLYRMNPADGKIQQLEVSEDLVNSFSLAQNAPVMVYYGQSASNSDRLYTMNTKKMKSSLLEDLSKDILKDVELGECKAWSFTNSRGDTIYGRYYLPPHFDANRKYPMIVNYYGGCSPVSRNFESRYPHHAYAALGYVVYVIEPSGATGFGQEFSARHVNTAGEGVAQDIIEGTKQFCKEHAFVNDKKIGCIGASYGGFMTQYLQTQTDIFAAAISHAGISDHTSYWGEGYWGYSYSEVSMANSYPWSNPDLFVKQSPLFNADKIHTPLLFLHGDADVNVPVGESIQMFTALKLLGRETAFVAVTGQDHHIVDYGKRIQWQNTIFAWFAKWLQ | not soluble
16 | MIGKRFFQTTSKKIAFAFDIDGVLFRGKKPIAGASDALKLLNRNKIPYILLTNGGGFSERARTEFISSKLDVDVSPLQIIQSHTPYKSLVNKYSRILAVGTPSVRGVAEGYGFQDVVHQTDIVRYNRDIAPFSGLSDEQVMEYSRDIPDLTTKKFDAVLVFNDPHDWAADIQIISDAINSENGMLNTLRNEKSGKPSIPIYFSNQDLLWANPYKLNRFGQGAFRLLVRRLYLELNGEPLQDYTLGKPTKLTYDFAHHVLIDWEKRLSGKIGQSVKQKLPLLGTKPSTSPFHAVFMVGDNPASDIIGAQNYGWNSCLVKTGVYNEGDDLKECKPTLIVNDVFDAVTKTLEKYA | soluble
17 | MSLAPSNSLEICGDGVKNPTTFTRAQLEDMPQYQQVYSSINTWPSKKWYVGKGVHLSELLSLVGIKDDARLLKFTSQDGYTMTLTVKELLVDKRYYFPHFNDNKIGDGEGNIAGSSQGAELVEPIIALISVEGSNNPNYMNDLNTLVLMMGQRAVTEQTGNAFVKYLNKIEVLTSEVPKWDSPQANPGSGEVSAGTMIALSTARMDDDKIYYTTDGSTPNLNSPIYNWIAKRWWSARADILGTYNHPIGPINENTTIKAITIGPGKENSDVATFTYTVPVSKPASETSIVAPNEATNYPDQALEKPLQSEPKATLTDVQNHWAQKNINELIASGIAGGYPDSSFRPDNTITRAEFATMLVKAFNLQNQGGKVFADSEQHWAKEYISRATASGVVSGYDAENFGPDKLITREQMAVMISKAAKLVLKAEAMHFADSAGISEWAKEAVLAANQSGIVKGYPDNTIRPQGSATRAEAVTVIVNALTLKEGHHHHHH | soluble
18 | MSFEYNEKVLDHFLNPRNVGVLEDANGVGQCGNPACGDAMLFTIKVNPENDVIEDVRFKTFGCGSAIAVSSMLTEMVKGKPIQYALNLTYKDIFEELGGLPPQKIHCTNLGLETLHVAIKDYLMKQGRVEEASKIPDCYEEEEEQEESKEFEFLSGTLEHHHHHH | soluble
19 | MSQSGEQRRYTLGEFFSLAGDERMELYEGTIVLMYPVPYEHEGVVANLIAEFRMALKGSPCLVFGSNLQVVLLFEDEQKGTKNVTVLPDLSIICDRTKLRQGRCYGAPDLVVEVLSPSTARNDRLLKRLYYEKAGVREYWLVDYQHKVMEKYVWQSGAFQLEDVYDAANGAAASTVFPEVRFSVKEIFAFLTS | not soluble
20 | MGSDKIHHHHHHMKKKIIHTLVYNYEIPVSLEEHLICLKPRSNSFQELSNFDLQIFPSPYSIFPLLSDNGDDIFKLLFTGSTNSLKIKTESDIETNIHPDLYQLKNDYDLSLPLKIESNDSLIGFIKGWFPNGQHDPAAIRIAQEALAGINNNVLDFLYHLIELIKDRVKYTPRHIGPAWTSGRTLSERVGSCRDLAILLMETCRCVGIPSRFVSGYQFMDQAPDKYELHAWTEVYIPGFGWRGFDPSGCGLINHNYVALASSSKSELVAPLRGSFVGPSNLKSELEWKIDIT | not soluble
